Tests used:
[1] = biological target: TDP43 low complexity domain (TDP43-LCD) condensates (UniProt Q13148)
[2] = biological target: TDP43-LCD condensates, 2% Alexa Fluor 488 labeled (UniProt Q13148)
[3] = biological target: TDP43 low complexity domain (TDP43-LCD) condensates (UniProt Q13148); assay: co-sedimentation; TDP43-LCD condensates (50 μM) mixed with spin-labeled Httex1(Q46)-35R1 monomers (pre-filtered, 100 kD) or fibrils (sonicated, unbundled), 20 μM starting concentration; 123,000g at 4 °C; Httex1 in pellet and supernatant quantified by EPR

| t1/2 of ThT fluorescence of 50 μM TDP43-LCD with 5 μM and 20 μM Httex1(Q46) fibrils (∼4 h and ∼1.5 h; ∼7 h without fibrils) [1] [h] | percent of TDP43-LCD condensates irregularly shaped after 4 h of co-incubation with Httex1(Q46) fibrils (∼10% without fibrils), fluorescence microscopy [2] [%] | concentration of Httex1(Q46) in the pellet [3] [µM] | Substance |
| --- | --- | --- | --- |
| 4 | 60 | – | Httex1(Q46) fibrils, Alexa Fluor 594 labeled (domain or fragment) |
| – | – | < 0.3 | Httex1(Q46)-35R1 monomer (domain or fragment) |

Source: paper PMC11408864
